Test results published in patent publication US20170281720A1 (published 2017).
Bridges are numbered along the chain shown (N, C = ends). [ ]: non-standard residue; d: D form. pY = N[C@@H](Cc1ccc(OP(=O)(O)O)cc1)C(=O)O; NMeW = CN[C@@H](Cc1c[nH]c2ccccc12)C(=O)O; NMeY = CN[C@@H](Cc1ccc(O)cc1)C(=O)O; R8 = C=CCCCCCC[C@@](C)(N)C(=O)O; Cba = N[C@@H](CC1CCC1)C(=O)O; hLeu = CC(C)CC[C@H](N)C(=O)O; S5 = C=CCCC[C@](C)(N)C(=O)O; Decac = not defined here; Napac = not defined here; Nle = CCCC[C@H](N)C(=O)O; F4g = not defined here; G1a = not defined here

Legend:
MDMX (In-house, 40 kD) [1] = target: T1, MDMX (In-house, 40 kD) (UniProt O15151 1-120, limits assumed); assay: competitive fluorescence polarization on MDMX against FAM-labeled linear peptide; grade, scale in paragraph 462
T1 construct: Only 'In-house, 40 kD' is said of the protein used in the fluorescence polarization assays; also called MDM4
T1 sequence (looked up): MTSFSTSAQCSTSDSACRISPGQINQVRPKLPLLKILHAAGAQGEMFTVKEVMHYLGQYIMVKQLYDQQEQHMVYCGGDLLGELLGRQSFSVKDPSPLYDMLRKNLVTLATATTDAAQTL

MDM2 (In-house, 41 kD) [2] = target: T2, MDM2 (In-house, 41 kD) (UniProt Q00987 1-125, limits assumed); assay: competitive fluorescence polarization on MDM2 against FAM-labeled linear peptide; grade, scale in paragraph 462
T2 construct: Only 'In-house, 41 kD' is said of the protein used in the fluorescence polarization assays; also called HDM2
T2 sequence (Q00987 1-125 limits assumed): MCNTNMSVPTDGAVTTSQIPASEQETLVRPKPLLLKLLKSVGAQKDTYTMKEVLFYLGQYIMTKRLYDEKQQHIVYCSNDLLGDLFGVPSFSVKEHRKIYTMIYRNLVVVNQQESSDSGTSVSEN

MDMX (In-house, 40 kD) [3] = target: T3, MDMX (In-house, 40 kD) (UniProt O15151 1-120, limits assumed); assay: FP competition on MDMX vs FAM-labeled linear peptide; graded IC50, + = >1000 nM
T3 construct: Construct not described beyond 'In-house, 40 kD'; also called MDM4
T3 sequence (looked up): T1 sequence (looked up)

MDMX (In-house, 40 kD) [4] = target: T3, MDMX (In-house, 40 kD); assay: FP competition on MDMX vs FAM-labeled linear peptide; graded Ki, + = >1000 nM
MDMX (In-house, 40 kD) [5] = target: T4, MDMX (In-house, 40 kD) (UniProt O15151 1-120, limits assumed); assay: Ki (MDMX) grade; competitive FP vs FAM-labeled linear peptide; + = >1000 nM
T4 construct: The construct used is unknown; also called MDM4
T4 sequence (looked up): T1 sequence (looked up)

MDMX (In-house, 40 kD) [6] = target: T4, MDMX (In-house, 40 kD); assay: IC50 (MDMX) grade; competitive FP vs FAM-labeled linear peptide; + = >1000 nM
MDMX (In-house, 40 kD) [7] = target: T5, MDMX (In-house, 40 kD) (UniProt O15151 1-120, limits assumed); assay: competitive FP vs FAM labeled linear peptide; column IC50 (MDMX); + = >1000 nM by the table's scale
T5 construct: Only 'MDMX (In-house, 40 kD)' is said of the protein in the FP assays; also called MDM4
T5 sequence (looked up): T1 sequence (looked up)

MDMX (In-house, 40 kD) [8] = target: T5, MDMX (In-house, 40 kD); assay: competitive FP vs FAM labeled linear peptide; column Ki (MDMX); + = >1000 nM by the table's scale
MDM2 (In-house, 41 kD) [9] = target: MDM2 (In-house, 41 kD) (UniProt Q00987); assay: competitive fluorescence polarization on MDM2 against FAM-labeled linear peptide; grade, scale in paragraph 462
Chain of MDM2 (In-house, 41 kD) (UniProt Q00987) (Q00987 1-125 limits assumed): as above

MDMX (In-house, 40 kD) [10] = target: T6, MDMX (In-house, 40 kD) (UniProt O15151); assay: competitive fluorescence polarization on MDMX against FAM-labeled linear peptide; grade, scale in paragraph 462
T6 sequence (looked up): T1 sequence (looked up)

B1: SP713, Ac-LTF$r8SYWAQCba$SAA-NH2 (iso2) (peptide)
peptide: Ac-LTF[R8]SYWAQ[Cba][S5]SAA-NH2
modifications: staple 4-11; also: single isomer iso2
notes: stapled peptidomimetic macrocycle, isomer iso2
B1 showed a Ki (MDMX (In-house, 40 kD) [1]) of at most 10 nM and a Ki (MDM2 (In-house, 41 kD) [2]) of at most 10 nM.

B2: SP252, Ac-LTA$r8EYWAQCba$SAA-NH2 (peptide)
peptide: Ac-LTA[R8]EYWAQ[Cba][S5]SAA-NH2
modifications: staple 4-11
Work on B2 yielded an IC50 (MDMX (In-house, 40 kD) [3]) of over 1000 nM and a Ki (MDMX (In-house, 40 kD) [4]) of over 1000 nM.

B3: SP282 (peptide)
peptide: Decac-LTF[R8]EYWAQ[hLeu][S5]SAA-NH2
modifications: staple 4-11; reading uncertain
notes: Peptidomimetic macrocycle (stapled p53-derived peptide)
B3 showed a Ki (MDMX (In-house, 40 kD) [5]) of over 1000 nM and an IC50 (MDMX (In-house, 40 kD) [6]) of over 1000 nM.

B4: SP386 (peptide)
peptide: Ac-LTF[R8]AY[NMeW]AQL[S5]AA[Nle]A-NH2
modifications: staple 4-11; not fully specified
notes: Stapled peptidomimetic macrocycle, single isomer iso2; also called Ac-LTF$r8AYNmWAQL$AANleA-NH2
Work on B4 yielded an IC50 (MDMX (In-house, 40 kD) [7]) of over 1000 nM and a Ki (MDMX (In-house, 40 kD) [8]) of over 1000 nM.

B5: SP609, Ac-LTF$r8EYWAAibL$AAAAAa-NH2 (peptide)
peptide: LTFAEYWAXLAAAAAAA
modifications: not fully specified; N-terminal acetyl; $r8 (alpha-Me R8-octenyl-alanine) at 4 crosslinked to $ (alpha-Me S5-pentenyl-alanine) at 11; Aib (2-aminoisobutyric acid) at 9; D-alanine at 17; C-terminal amide
notes: stapled peptidomimetic macrocycle
In the case of B5, the Ki (MDM2 (In-house, 41 kD) [2]) is reported as at most 10 nM.

B6: SP615, Ac-LTF$r8EpYWAQL$AAAAAa-NH2 (peptide)
peptide: Ac-LTF[R8]E[pY]WAQL[S5]AAAAA[dA]-NH2
modifications: staple 4-11
B6 gave a Ki (MDM2 (In-house, 41 kD) [9]) of under 10 nM and a Ki (MDMX (In-house, 40 kD) [10]) of under 10 nM.

B7: SP281 (peptide)
peptide: Napac-LTF[R8]EYWAQ[hLeu][S5]SAA-NH2
modifications: staple 4-11; reading uncertain
notes: as for B3
B7 gave an IC50 (MDMX (In-house, 40 kD) [6]) of over 1000 nM.

B8: SP384 (peptide)
peptide: Ac-LTF[R8]A[NMeY]WAQL[S5]AA[Nle]A-NH2
modifications: staple 4-11; not fully specified
notes: Stapled peptidomimetic macrocycle, single isomer iso2; also called Ac-LTF$r8ANmYWAQL$AANleA-NH2
Binder B8 has an IC50 (MDMX (In-house, 40 kD) [7]) of over 1000 nM and a Ki (MDMX (In-house, 40 kD) [8]) of over 1000 nM.

B9: SP602, Ac-LTF$r8G1aYWAQL$AAAAAa-NH2 (peptide)
peptide: Ac-LTF[R8][G1a]YWAQL[S5]AAAAA[dA]-NH2
modifications: staple 4-11; not fully specified; reading uncertain
notes: as for B5
Work on B9 yielded a Ki (MDMX (In-house, 40 kD) [1]) of at most 10 nM and a Ki (MDM2 (In-house, 41 kD) [2]) of at most 10 nM.

B10: SP600, Ac-LTF$r8QYWAQL$AAAAAa-NH2 (peptide)
peptide: Ac-LTF[R8]QYWAQL[S5]AAAAA[dA]-NH2
modifications: staple 4-11
notes: as for B5
With B10 the Ki (MDMX (In-house, 40 kD) [1]) was at most 10 nM and the Ki (MDM2 (In-house, 41 kD) [2]) was at most 10 nM.

B11: SP608, Ac-LTF$r8EYWALL$AAAAAa-NH2 (peptide)
peptide: Ac-LTF[R8]EYWALL[S5]AAAAA[dA]-NH2
modifications: staple 4-11
notes: as for B5
B11 gave a Ki (MDM2 (In-house, 41 kD) [2]) of at most 10 nM.

B12: SP603, Ac-LTF$r8F4gYWAQL$AAAAAa-NH2 (peptide)
peptide: Ac-LTF[R8][F4g]YWAQL[S5]AAAAA[dA]-NH2
modifications: staple 4-11; not fully specified; reading uncertain
notes: as for B5
Binder B12 has a Ki (MDMX (In-house, 40 kD) [1]) of at most 10 nM and a Ki (MDM2 (In-house, 41 kD) [2]) of at most 10 nM.

B13: SP613, Ac-LTF$r8EYWAHL$AAAAAa-NH2 (peptide)
peptide: Ac-LTF[R8]EYWAHL[S5]AAAAA[dA]-NH2
modifications: staple 4-11
notes: as for B5
With B13 the Ki (MDM2 (In-house, 41 kD) [2]) was at most 10 nM.

B14: SP610, Ac-LTF$r8EYWASL$AAAAAa-NH2 (peptide)
peptide: Ac-LTF[R8]EYWASL[S5]AAAAA[dA]-NH2
modifications: staple 4-11
notes: as for B5
Work on B14 yielded a Ki (MDM2 (In-house, 41 kD) [2]) of at most 10 nM.

B15: SP611, Ac-LTF$r8EYWANL$AAAAAa-NH2 (peptide)
peptide: Ac-LTF[R8]EYWANL[S5]AAAAA[dA]-NH2
modifications: staple 4-11
notes: as for B5
B15 gave a Ki (MDM2 (In-house, 41 kD) [2]) of at most 10 nM.
